Here are results for 2 molecules from US20250109206A1.

Assay [1] deals with human recombinant CD3 δε heterodimer (human) (UniProt P07766). Description: SPR (Biacore), Fab captured on anti-human Fab chip, human CD3 δε heterodimer as analyte, 1:1 binding fit. On the technique in general: Surface plasmon resonance follows binding to a sensor surface in real time, without labels.
For assay [2] the target is unchanged. Description: SPR (Biacore 8K), Fab captured, CD3 δε heterodimer as analyte.
The target of assay [3] is cynomolgus monkey recombinant CD3 δε heterodimer (cynomolgus) (UniProt Q95LI5). Nature of the assay: SPR (Biacore), Fab captured on anti-human Fab chip, cyno CD3 δε heterodimer as analyte, 1:1 binding fit.
Chain of cynomolgus monkey recombinant CD3 δε heterodimer (cynomolgus) (Q95LI5 22-117, stated change not applied, chain 1 of 2): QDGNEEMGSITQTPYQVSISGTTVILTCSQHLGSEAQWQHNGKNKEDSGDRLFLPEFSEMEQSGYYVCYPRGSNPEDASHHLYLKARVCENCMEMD
Chain of cynomolgus monkey recombinant CD3 δε heterodimer (cynomolgus) (Q95LI8 22-105, stated change not applied, chain 2 of 2, further chain): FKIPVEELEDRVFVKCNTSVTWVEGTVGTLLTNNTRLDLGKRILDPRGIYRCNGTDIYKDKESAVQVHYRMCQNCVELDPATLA

Chain of human recombinant CD3 δε heterodimer (human) (P07766 23-126, stated change not applied, chain 1 of 2): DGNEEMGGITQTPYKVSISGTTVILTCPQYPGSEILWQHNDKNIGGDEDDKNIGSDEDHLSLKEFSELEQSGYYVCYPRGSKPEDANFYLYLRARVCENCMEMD
Chain of human recombinant CD3 δε heterodimer (human) (P04234 22-105, stated change not applied, chain 2 of 2, further chain): as the sequence (Q95LI8 22-105, stated change not applied, chain 2 of 2, further chain) above, with V5I, K15N, V20I, T32S, N33D, N34I, A64T, N74S, L83V counted along it

B1: Anti-CD3 Fab-001 (Fab, V domains shown)
VH: EVQLVESGGGLVQPGGSLRLSCAASGFTFNTYAMNWVRQAPGKGLEWVARIRSKYNNYATYYADSVKDRFTISRDDSQSILYLQMNSLKTEDTAVYYCVRHGNFGNSYVSWFAYWGQGTLVTVSS
VL: QAVVTQEPSLTVSPGGTVTLTCRSSTGAVTTSNYANWVQQKPDHLPRALIGGTNKRAPGTPARFSGSLLGDKAALTLSGVQPEDEAEYYCALWYSNLWVFGGGTKLTVL
In the case of B1, the results for the kon in assay [1] and in assay [3] were 162000 M⁻¹ s⁻¹ and 158000 M⁻¹ s⁻¹, respectively. In addition, the Kd came out at 29 nM in assay [2] and 28.4 nM in assay [3]. Also, in assay [3], the koff turned out to be 0.00448 s⁻¹.

B2: Anti-CD3 Fab-002 (Fab, V domains shown)
VH: EVQLVESGGGLVQPGGSLRLSCAASGFTFNTYAMNWVRQAPGKGLEWVGRIRSKYNNYATYYADSVKGRFTISRDDSKNSLYLQMNSLKTEDTAVYYCARHGNFGNSYVSWFAYWGQGTLVTVSS
VL: QAVVTQEPSLTVSPGGTVTLTCRSSTGAVTTSNYANWVQQKPDHLPRALIGGTNKRAPGVPARFSGSLLGDKAALTISGAQPEDEAIYYCALWYSNLWVFGGGTKLTVL
With B2, the on-rate (kon) in assay [1] was determined as 433000 M⁻¹ s⁻¹. Further, the dissociation constant Kd in assay [2] worked out at 46 nM. For the same molecule, in assay [3], the Kd is 71.8 nM, the koff amounted to 0.0113 s⁻¹ and the on-rate (kon) was found to be 157000 M⁻¹ s⁻¹.

By kon is commonly meant the rate constant with which the complex forms. Usually Kd stands for a measure of binding affinity in units of concentration. By koff is commonly meant the first-order rate constant of dissociation.
